Bridges are numbered along the chain shown (N, C = ends). Primed or numbered codes have the meaning given here. [ ]: non-standard residue; d: D form. 8x polyethylene glycol‑amino = O-(8x polyethylene glycol-amino)-tyrosine, SITE 45; 9x polyethylene glycol‑azido = O-(9x polyethylene glycol-azido)-tyrosine, SITE 42; Ygp = O-(8x polyethylene glycol-amino)-tyrosine (Tyr, amino-capped PEG8); Yn3 = O-(9x polyethylene glycol-azido)-tyrosine (Tyr, azide-capped PEG9); Ygp″ = O-(8x polyethylene glycol-amino)-tyrosine; Yn3″ = O-(9x polyethylene glycol-azido)-tyrosine; Ygp(6) = Tyr, amino-capped PEG8; Yn3(6) = Tyr, azide-capped PEG9; PEG4′ = 4x polyethylene glycol; hSer = N[C@@H](CCO)C(=O)O; Nle = CCCC[C@H](N)C(=O)O

The text below walks through data of US20240376170A1 (BRIGHT PEAK THERAPEUTICS, published 2024).

First the molecules themselves.
B1: CMP-320 (ligand)
chain: SGRVAPQPLVDAPTSSSTKKTQLQLEHLLLDLQEILNGINNYKNPKLTR[Nle]L[hSer][Yn3(6)]KF[Ygp(6)][Nle]PKKATELKHLQCLEEELKPLEEVL[hSer]LAQSKNFHLRPRDLISNINVIVLELKGSETTF[hSer]CEYADETATIVEFLNRWITFSQSIISTLT
modifications: lactam N-34
B2: CMP-315, matriptase cleaved (ligand)
chain: APTSSSTKKTQLQLEHLLLDLQKILNGINNYKNPKLTR[Nle]L[hSer][Yn3]KF[Ygp][Nle]PKKATELKHLQCLEEELKPLEEVL[hSer]LAQSKNFHLRPRDLISNINVIVLELKGSETTF[hSer]CEYADETATIVEFLNRWITFSQSIISTLT
modifications: ends and bridges not checked; also: further groups not given here, tested after matriptase cleavage, remaining product not given here
B3: CMP-317 (ligand)
chain: GSGSGSG[PEG4′]APTSSSTKKTQLQLEHLLLDLQEILNGINNYKNPKLTR[Nle]L[hSer][Yn3]KF[Ygp][Nle]PKKATELKHLQCLEEELKPLEEVL[hSer]LAQSKNFHLRPRDLISNINVIVLELKGSETTF[hSer]CEYADETATIVEFLNRWITFSQSIISTLT
modifications: bridge N-31; not fully specified (bridges); ends not checked
B4: CMP-318 (ligand)
chain: SGRVANLVGAPTSSSTKKTQLQLEHLLLDLQEILNGINNYKNPKLTR[Nle]L[hSer][Yn3]KF[Ygp][Nle]PKKATELKHLQCLEEELKPLEEVL[hSer]LAQSKNFHLRPRDLISNINVIVLELKGSETTF[hSer]CEYADETATIVEFLNRWITFSQSIISTLT
modifications: lactam N-32; ends not checked
B5: CMP-330, MMP2 cleaved (ligand)
chain: APTSSSTKKTQLQLEHLLLDLQEILNGINNYKNPKLTR[Nle]L[hSer]Y(9x polyethylene glycol‑azido)KFY(8x polyethylene glycol‑amino)[Nle]PKKATELKHLQCLEEELKPLEEVL[hSer]LAQSKNFHLRPRDLISNINVIVLELKGSETTF[hSer]CEYADETATIVEFLNRWITFSQSIISTLT
modifications: not fully specified; also: before the cut Lys9 and Glu23 side chains are bridged by a peptide linker, what remains after the cut not given here
B6: CMP-321 (ligand)
chain: SGRVQPLVDAPTSSSTKKTQLQLEHLLLDLQEILNGINNYKNPKLTR[Nle]L[hSer][Yn3(6)]KF[Ygp(6)][Nle]PKKATELKHLQCLEEELKPLEEVL[hSer]LAQSKNFHLRPRDLISNINVIVLELKGSETTF[hSer]CEYADETATIVEFLNRWITFSQSIISTLT
modifications: lactam N-32
B7: CMP-316, uPa cleaved (ligand)
chain: APTSSSTKKTQLQLEHLLLDLQKILNGINNYKNPKLTR[Nle]L[hSer][Yn3]KF[Ygp][Nle]PKKATELKHLQCLEEELKPLEEVL[hSer]LAQSKNFHLRPRDLISNINVIVLELKGSETTF[hSer]CEYADETATIVEFLNRWITFSQSIISTLT
modifications: ends and bridges not checked; also: further groups not given here, tested after uPa cleavage, remaining product not given here
B8: CMP-316 (ligand)
chain: APTSSSTKKTQLQLEHLLLDLQKILNGINNYKNPKLTR[Nle]L[hSer][Yn3]KF[Ygp][Nle]PKKATELKHLQCLEEELKPLEEVL[hSer]LAQSKNFHLRPRDLISNINVIVLELKGSETTF[hSer]CEYADETATIVEFLNRWITFSQSIISTLT
modifications: ends and bridges not checked; also: further groups not given here
B9: CMP-330 (ligand)
chain: APTSSSTKKTQLQLEHLLLDLQEILNGINNYKNPKLTR[Nle]L[hSer]Y(9x polyethylene glycol‑azido)KFY(8x polyethylene glycol‑amino)[Nle]PKKATELKHLQCLEEELKPLEEVL[hSer]LAQSKNFHLRPRDLISNINVIVLELKGSETTF[hSer]CEYADETATIVEFLNRWITFSQSIISTLT
modifications: bridge 9-23; not fully specified (bridges)
B10: CMP-328, uPa cleaved (ligand)
chain: APTSSSTKKTQLQLEHLLLDLQEILNGINNYKNPKLTR[Nle]L[hSer][Yn3]KF[Ygp][Nle]PKKATELKHLQCLEEELKPLEEVL[hSer]LAQSKNFHLRPRDLISNINVIVLELKGSETTF[hSer]CEYADETATIVEFLNRWITFSQSIISTLT
modifications: also: uPa-cleaved, before the cut Lys9-Glu23 side chains bridged by peptide linker, product not given here
B11: CMP-329, MMP2 cleaved (ligand)
chain: APTSSSTKKTQLQLEHLLLDLQEILNGINNYKNPKLTR[Nle]L[hSer][Yn3″]KF[Ygp″][Nle]PKKATELKHLQCLEEELKPLEEVL[hSer]LAQSKNFHLRPRDLISNINVIVLELKGSETTF[hSer]CEYADETATIVEFLNRWITFSQSIISTLT
modifications: ends and bridges not checked; also: after MMP2 cleavage, remnants of the Lys9–Glu23 peptide linker not given here
B12: CMP-328, matriptase cleaved (ligand)
chain: APTSSSTKKTQLQLEHLLLDLQEILNGINNYKNPKLTR[Nle]L[hSer][Yn3]KF[Ygp][Nle]PKKATELKHLQCLEEELKPLEEVL[hSer]LAQSKNFHLRPRDLISNINVIVLELKGSETTF[hSer]CEYADETATIVEFLNRWITFSQSIISTLT
modifications: also: matriptase-cleaved, before the cut Lys9-Glu23 side chains bridged by peptide linker, product not given here
B13: CMP-316, matriptase cleaved (ligand)
chain: APTSSSTKKTQLQLEHLLLDLQKILNGINNYKNPKLTR[Nle]L[hSer][Yn3]KF[Ygp][Nle]PKKATELKHLQCLEEELKPLEEVL[hSer]LAQSKNFHLRPRDLISNINVIVLELKGSETTF[hSer]CEYADETATIVEFLNRWITFSQSIISTLT
modifications: ends and bridges not checked; also: further groups not given here, tested after matriptase cleavage, remaining product not given here
B14: CMP-315, uPa cleaved (ligand)
chain: APTSSSTKKTQLQLEHLLLDLQKILNGINNYKNPKLTR[Nle]L[hSer][Yn3]KF[Ygp][Nle]PKKATELKHLQCLEEELKPLEEVL[hSer]LAQSKNFHLRPRDLISNINVIVLELKGSETTF[hSer]CEYADETATIVEFLNRWITFSQSIISTLT
modifications: ends and bridges not checked; also: further groups not given here, tested after uPa cleavage, remaining product not given here
B15: CMP-316, MMP2 cleaved (ligand)
chain: APTSSSTKKTQLQLEHLLLDLQKILNGINNYKNPKLTR[Nle]L[hSer][Yn3]KF[Ygp][Nle]PKKATELKHLQCLEEELKPLEEVL[hSer]LAQSKNFHLRPRDLISNINVIVLELKGSETTF[hSer]CEYADETATIVEFLNRWITFSQSIISTLT
modifications: ends and bridges not checked; also: further groups not given here, tested after MMP2 cleavage, remaining product not given here
B16: CMP-329 (ligand)
chain: APTSSSTKKTQLQLEHLLLDLQEILNGINNYKNPKLTR[Nle]L[hSer][Yn3″]KF[Ygp″][Nle]PKKATELKHLQCLEEELKPLEEVL[hSer]LAQSKNFHLRPRDLISNINVIVLELKGSETTF[hSer]CEYADETATIVEFLNRWITFSQSIISTLT
modifications: bridge 9-23; not fully specified (bridges); ends not checked

The target in the assay is T1, IL-2Rβγ on HEK-Blue IL-2Rβγ reporter cells (InvivoGen) (UniProt P14784 27-551; P31785 23-369, limits assumed).
T1 sequence (looked up) 1: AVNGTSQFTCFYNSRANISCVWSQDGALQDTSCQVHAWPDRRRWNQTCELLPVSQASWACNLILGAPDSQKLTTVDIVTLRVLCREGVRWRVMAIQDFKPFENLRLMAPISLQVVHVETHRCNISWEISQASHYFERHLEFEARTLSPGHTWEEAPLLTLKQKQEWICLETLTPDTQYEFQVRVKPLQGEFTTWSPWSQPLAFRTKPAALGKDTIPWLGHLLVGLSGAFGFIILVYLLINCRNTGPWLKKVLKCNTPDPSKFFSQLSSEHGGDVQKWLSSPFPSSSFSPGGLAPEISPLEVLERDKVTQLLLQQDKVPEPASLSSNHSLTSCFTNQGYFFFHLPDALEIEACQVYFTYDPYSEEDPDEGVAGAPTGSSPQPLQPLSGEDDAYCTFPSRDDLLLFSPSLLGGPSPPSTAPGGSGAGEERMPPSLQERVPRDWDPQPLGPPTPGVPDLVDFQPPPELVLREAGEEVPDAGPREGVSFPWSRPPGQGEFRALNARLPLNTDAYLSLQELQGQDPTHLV
T1 sequence (looked up) 2: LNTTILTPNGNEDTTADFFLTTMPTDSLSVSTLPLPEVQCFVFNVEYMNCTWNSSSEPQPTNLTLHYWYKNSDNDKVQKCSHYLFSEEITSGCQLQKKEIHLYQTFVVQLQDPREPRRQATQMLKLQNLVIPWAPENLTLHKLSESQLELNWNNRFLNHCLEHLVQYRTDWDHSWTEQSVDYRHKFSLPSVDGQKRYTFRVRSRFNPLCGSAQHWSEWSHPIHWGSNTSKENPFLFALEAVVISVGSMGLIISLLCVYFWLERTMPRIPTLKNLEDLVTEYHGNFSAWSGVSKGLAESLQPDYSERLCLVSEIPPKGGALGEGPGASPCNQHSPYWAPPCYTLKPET
The assay is described as follows: cell-based or functional assay.
On to B1, for which the “Average EC50, HEK-Blue IL-2R (CD122+, CD132+) Reporter Assay, intact molecule” value (“Average EC50, HEK-Blue IL-2R … intact molecule” below) came out at 0.775 nM.

B2: the “Average EC50, HEK-Blue IL-2R (CD122+, CD132+) Reporter Assay, Matriptase cleaved molecule” value (“Average EC50 … Matriptase cleaved molecule” below) was found to be 0.0349 nM.

For the molecule B3, the “Average EC50, HEK-Blue IL-2R … intact molecule” value stood at 2.24 nM.

For B4, the “Average EC50, HEK-Blue IL-2R … intact molecule” value is 3.37 nM.

Consider B5, for which the “Average EC50, HEK-Blue IL-2R (CD122+, CD132+) Reporter Assay, MMP2 cleaved molecule” value (“Average EC50 … MMP2 cleaved molecule” below) came to 0.558 nM.

With B6, the “Average EC50, HEK-Blue IL-2R … intact molecule” value came to 4.2 nM.

Take B7: the “Average EC50, HEK-Blue IL-2R (CD122+, CD132+) Reporter Assay, uPa cleaved molecule” value (from here on “Average EC50 … uPa cleaved molecule”) stood at 0.0884 nM.

As for B8, the “Average EC50, HEK-Blue IL-2R … intact molecule” value came to 0.0968 nM.

Take B9: the “Average EC50, HEK-Blue IL-2R … intact molecule” value is 1.73 nM.

Consider B10, for which the “Average EC50 … uPa cleaved molecule” value is 0.571 nM.

As to B11, the “Average EC50 … MMP2 cleaved molecule” value was determined as 0.0702 nM.

As to B12, the “Average EC50 … Matriptase cleaved molecule” value stood at 0.352 nM.

Regarding B13, the “Average EC50 … Matriptase cleaved molecule” value was determined as 0.0828 nM.

On to B14, for which the “Average EC50 … uPa cleaved molecule” value turned out to be 0.0581 nM.

With B15, the “Average EC50 … MMP2 cleaved molecule” value was 0.0963 nM.

Consider B16, for which the “Average EC50, HEK-Blue IL-2R … intact molecule” value stood at 1.7 nM.
